Reference: the nanobody polyreactivity screen of Harvey et al. (2022)

Test: yeast display, Sf9 membrane polyspecificity reagent, FACS + sequencing; frameworks hold sequencing errors
Summary of the method: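 Genes from sorted yeast were amplified by colony PCR, read by MiSeq 2 × 250 sequencing and filtered on CDR length. These cells carried a synthetic nanobody library in Saccharomyces cerevisiae BJ5465 and were sorted by FACS into low and high (top ~1%) gates on anti-HA and streptavidin fluorescence. Polyreactivity is labelled according to the gate of origin.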

| Sequence | polyreactivity (PSR sort gate) |
| --- | --- |
| QVQLVESGGGLVQAGGSLRFSCAASGSTFSYYAMGWYRQAPRKEREFVAAMSWNGGSTYYADSVKGRYTISRDNAKNTVYLHMNSLKPEDTEVYYCAADFKYGYSHGFRQRLYDYWGQGTQVTVSS | low polyreactivity |
| QVQIVESGGGLVQAGGSLRLSCAASGSIFSYYAMGWYRQAPGKERELVAGITGGGSTDYADSVKGRFTISRDNAKITVYLQMISLKPEDTAVYYCSTDGKPSFYSFDYCGQGTQVTVSS | low polyreactivity |
| QVHLVESVGGLVQAGGSLRLSCASSGFTFPYYAMGWYRQQPGKERELVAAISWIGDSTYYADSVKGRFTISRDNAKNTVYLQMNSLKPEDTAVYYCAAGYKWSIPNRDYDYWGQGTQVTVSS | low polyreactivity |
| QVQLVESGGGLVQAGCSLRLSCAASGRTFYYAMGWYRQAPGKERYADSVKGRFTISRDNAKNTVYLQMNSLKPEDTAVYYCAAKVPEPTSLDQSDYWGQGTQVTVSS | low polyreactivity |
| QVQLVESGGGLVQAGGSLRLSCAASGRTYNVMGWYRQAPGKERYLVAAITWGGGSTHYADSVKGRFTISRDNAKNTVYLQMISLKPEDTAVYYCAADLLYKSTRVDYWGQGTQVTVSS | low polyreactivity |
| QVQLVESGGGLVQAGGSLRLSCAASGLTFGGYAMGWYRQAPGKERELVAAISRSGTSTYYADSVKGRFTISRDNAKNTVYLQMNSLKPEDTAVYYCAKELYSWLQGYRGEGTMDYWGQGTQVTVSS | high polyreactivity |
| QVQLVESGGGLVQAGGSLRLICAASGSTFESYAMGWYRQAPGKERELVAAISRRGGRTYYADSVKGRFTISRDNAMNTVSLQMYSLKPEDTAVYYCATDSSYYGSDDYWGQGTQVTVSS | high polyreactivity |
| QVQLVESGGGLVQAGGSLRLSCAASGRIFGKYAMGWYRQAPGKERELVARISFSGGTTYYADSVKGRFTISRDNAKNTVYLQMNSLKQEDTAVYYCNARRVWSQRWAYDSWGQGTQVTVSS | high polyreactivity |
| QVQLVESGGGLVQAGGSLRLSCAASGSTFYKYAMGWYRQAPGKERELVAVINYRGGSTYYADSVKGRFTISRDNAKNTVYLQMNSLKPEDTAVYYCAARQYWQNRRQYYYWGQGTQVTVSS | high polyreactivity |
| QVQLVESGGGLVQAGGSLRLICAASGRTFSNAMGWYRQAPGKERELVADISSGGSPNYADSVKGRFTISRDNAKNTVYLEINSLKPEDTAVYYCAAFSGCLYGYSDDYWGQGTQVTVSS | low polyreactivity |
| QVQLVESGGGLVQAGGSLRLSCAASGSTFSENAMGWSRQAPGKERELVAAISWGGGSTYYADSVKGRFTISRDNAKNTVYLQMNSLKPEDTAVYYCNADVFDDYGYFESDYWGQGTQVTVSS | low polyreactivity |
| QVPLVESGVGLVQAGGSLRLSCAASGYTFYSYAMGWYRQAPGKEREFVAAIRTGGGTNYADSVKGRFTISRDNAKNTVYLQMNSLKPEDTAVYYCAARYYSQKSYIGFRPGYEYWGQGTQVTVSS | low polyreactivity |
| QVQLVESGGGLVQAGGSLRLSCAASGRNFGRYAMGWYRQAPGKEMELVAAISGSGGTTYYADSVKGRFTISRDNAKNTVYLQMNSLKPEDTAVYYCAARYWVGKVWKYDYWGQGTQVTVSS | high polyreactivity |
| QVQIVESGGGLVQAGGSLRISCAPSGLTFGYYAMGWYRQAPGTERELVAAITYRGGSTYYADSVKGRFTISRDNAKNTVYLQMNSLKPEDTAVYYCATDYFYYDYWGQGTQVTVSS | low polyreactivity |
| QVQLEESGGGLVQEGGSLRLICAASGRIFGSYVMGWYRQAPGKERELVAAISRRGGSTYYADSVKGRFTISRDNAKNTVYLQMNSLKTEVTAVYYCAAEFSPSSNPYDYWGQGTQVTVSS | high polyreactivity |
| QVQLVESGGGLVQAGGSLRLSCAASGTFRRYTMGWYRQAPGKERELVAAITSSGGTYYADSVKGRFTISRDNAKNTVYLQMNSLKPEDTAVYYCAARDYWSRYFRPGIVGWHDYWGQGTQVTVSS | high polyreactivity |
| QVQHVESGGGLLQAGGSLRLSCAASGFTFNANAMGWYRQAPGKERELVAVITRSGGRTYYADSVKGRFTISRDNAKNTVYLQMNSLKPEDTAVYYCNAKGWTRPPCYDYWGQGTQVTVSS | high polyreactivity |
| QGQLVESGGGLVQAGGSLRLSCAASGLTFYYYARGWYRQAPGKERELVATISSRGGSTNYADSVKGRFTISRDNAKNTVYLQMNSLKPEDTAVYYCATDNSGYPRLNYWGQGTHVTVSS | high polyreactivity |
| QVQLVESGGGLVQAGGSLRLSCAASGRNFAWYAMGWYRQAPGKERELVAAISWSSDTTYYADSVKGRFTISRDNAKNTVYLQMNSLKPEDTAVYYCAAVFQGYTRKYYYWGQGTQVTVSS | high polyreactivity |
| QVQLVESGAGLVQAGGSLRVSCAASGSIFGKNAMGWYRQAPGKERELVAAITSSGGSTYYADSVKGRFTISRDNAKNTVYLQMNSLKPEDTAVYYCAARPWIWARAGYYWGQGTQVTVSS | high polyreactivity |
| QVQLVESVGGLVQAGGILRLSCGASGRTFTGYTMRWYRQEPGKERELVATISRRGRSTYYADSVKGRFTISRDNAKNTVYLQMNSLKPEDTAVYYCAAEKPRAVYFEYDYWGLGTQVTVSS | high polyreactivity |
| QVQLVESGGGLVQAGGSLRLSCAASGIIIRNYGMGCYRQAPGKERELVARIRWTGGSTYYADSVKGRFTISRDNAKNTVYLQMNSLKPEDTAVYYCAADIWQYSRIANYHPYDYWGQGTQVTVSS | low polyreactivity |

| Sequence | polyreactivity (PSR sort gate) |
| --- | --- |
| QVQLVESGGGLVQAGGSLRLSCAASGSIFRSNSMGWYRQAPGKERELVAAISSRGGSTYYADSVKGRFTISRDNAKNTVYLQMNSLKPEDTAVYYCYKDRYTVISYDEYDYWGQGTQVTVSS | high polyreactivity |
| QVQLVESGGGLVQAGGSLRLSCAASGITFYGYAMGWYRQAPGKEREFVAAISASGGSTYYADSVKGRFTISRDNAKNTVYLQMNSLKPEDTAVYYCAALVRGAYGYGYWGQGTQVTVSS | high polyreactivity |
| QVQLVESGGGLFEEGGSLRISCAASGRIFAPYAMGWYRHAPGKERELVAAISWSDVSTDYAVSVKGRFTISRDNAKNTVYLQMYSLKPEVTAVYYCAAAYAGYRGWYYYWGQVTQVTVSS | high polyreactivity |
| QDQLVESGGGLVQAGGSLRLSCAASGYIFITKAMGLNRQAPGKERELVAAINSGGSTYYADSVKGRFTISRDNAKNTVYLQMKSLKPEDTAVYYCAAEYWVYYWHYYDYWGQGTQVTVSS | high polyreactivity |
| QVQLVESGGGLVQAGGSLRLSCAASGLTFLLNAMGWYRQAPGKERELVAAITWRGGRTYYADSVKGRFTISRDNAKNTVYLQMNSLKPEDTAVYYCAAVPVVQSQPTYYYWGQGTQVTVSS | high polyreactivity |
| QVQLVESGGGLVQAGGSLRLSCAASGIIFGGYAMGWYRQAPGKERELVAAIDSSGSSTYYADSVKGRFTISRDNAKNTVYLQMNSLKPEDTAVYYCNAASSGHSGRLTSIINDYWGQGTQVTVSS | high polyreactivity |
| QVQLVESGGGLVQAGGSLRLSCAASGSTLVTYTMGWYRQAPGKERELVASISWRGGSTYYADSVKGRFTISRDNAKNTVYLQMNSLKPEDTAVYYCNAVYYLWDYDYWGQGTQVTVSS | low polyreactivity |
| QVQIVESGGGLFQAGGSLRLSCAASGITFVFYAKRRYRQAPGKERELVAAISSSGGSTYYADSVKVRFTISRDYAKNSVYLQMKSLKPDDTAVYYCNAIVFSYQRAVRYDYWGQGTQVTVSS | high polyreactivity |
| QVQLVESGGGLVQAGGSLRLSCAASGITSEYNTMGWYRQAPGKERELVAGISYRGGSTYYADSVKGRFTISRDNAKNTVYLQMNSLKPEDTAVYYCAKSFKRWRYGNPDYYWGQGTQVTVSS | high polyreactivity |
| QVQLVESGGGLVQAGGSLRLSCAASGSIFLGYAMGWYRQAPGKERELVADIDWRDGSTYYADSVKGRFTISRDNAKTTVYLQMNSLKPEDTAVYYCAVYDNLQWDFGIYYEYDYWGQGTQVTVSS | high polyreactivity |
| QVQLVESGGGLVQAGGSLRLSCAASGSIFQYTMGWYRQAPGKERELVAAITRSGSSTYYADSVKGRFTISRDNAKNTVYLQMNSLKPEDTAVYSCAHTIRRVLGYGSWGQGTQVTVSS | high polyreactivity |
| QVQLVESGGGLVQAGGSLRLSCAASGRTFTTYAMGWYRQAPGKERELVAAITSGGSTNYADSVKGRFTISRDNAKNTVYLQMNSLKPEDTAVYYCAARFRVYTYSQRHWREFGYWGQGTQVTVSS | high polyreactivity |
| QVQLVESGGGLVQAGGSLRLSCAASGSTFPSYAMGGYRPAPGKERELVAAINRSGGSTYYADSVKGRFTISRDNAKNTVYLQMNSLKPEDTAVYYCATGLTTGGGYYWGQGTQVTVSS | high polyreactivity |
| QVQLVESGGGLVQAGGSLRLSCDASGSTIIRNAMGWSRQAPGKERELVAAISTSGGRTHYADSVKGRFTISRDNAKNTVYLKMNSLKPEDTAVYYCATRGKGHYYYWGQGTQVTVSS | high polyreactivity |
| QVQLVESGGGLVQAGGSLRLSCAASGSISSQYGMGWYRQAPGKERELVATIRDGGRTNYADSVKGRFTISRDNAKNTVYLQMNCLKPEDTAVYYCAALYWYYYTWPLYDYWGQGSQVTVSS | low polyreactivity |
| QVQLQESGGGLEQAGGSLRLSCAASGNISSWYPMGWYRQAPGKEREFVATIAPVATTNYADSVKGRFTISRDYAKITVYLQMNSLKPEDTAVNYCAAGPDNNDFYSYWGQGTQVTVSS | low polyreactivity |
| QVQLVESGGGLVQAGGSLRLSCAASGFTFWRYAMGWSRQAPGKERELVAAISRTGGRTYYADSVKGRFTISRDNAKITVYLQMTSLKPEDTAVYYCAAVKYETYRYNYDYWGQGTQVTVSS | high polyreactivity |
| QVQLVESGGGLVQAGGILRLSCADSGRTFWYYAMGWYRQAHGKERELVAAITRGGRTNYADSVKGRFTISRDNAKNTVYLQMNSLKPEDTAVYYCAADYRYPAHSYGYWGQGTQVTVSS | high polyreactivity |
| QVQLVESGGGLVQAGGSLRLSCAASGRTFSSYTMGWYRQAPGKERELVASITNNGGSTYYADSVKGRFTISRDNAKNTVYLQMNSLKPEDTAVYYCAVDSRGKLGISGEYGYWGQGTQVTVSS | low polyreactivity |
| QVQLEESGGGLVQAGGSLRLSCAASGFITSHYAMGWYIQAPGKERELVATISSGGSTYADSVKGRFTISRDNAKNTVYLQMNSLKPEDTAVYYCNVRLQGTYRAGVRGDYWGQVTQVTVSS | high polyreactivity |
| QVQLVESGGGLVQAGGSLRLSCAASGLIFGVNAMGWYRQAPGKERELVAAISRDSDTNYADSVKGRFTISRDNAKNTDYLQMNSLKPEDTAVYYCNAYSEWPVPSPPRSQSLDYWGQGTQVTVSS | low polyreactivity |
